How the values were obtained:
Assay in all cases: cryo-EM structure; purified Wzc at ~2 mg/ml in LMNG, incubated with 1 mM ADP and 10 mM MgCl2 at 4 °C for 1 h; maps refined without symmetry (C1) or with C8 symmetry; octamer of one protein
[1] = target: Wzc^K540M2YE (K540M, Y718E, Y717E) from E. coli serotype K30 (E. coli K30) (UniProt P76387)
[2] = target: Wzc^K540M3YE (K540M, Y718E, Y717E and Y715E) from E. coli serotype K30 (E. coli K30) (UniProt P76387)
[3] = target: Wzc^K540M3YE_N711Y (K540M, Y718E, Y717E, Y715E and N711Y) from E. coli serotype K30 (E. coli K30) (UniProt P76387)

Wzc^K540M2YE (K540M, Y718E, Y717E) from E. coli serotype K30 (from UniProt P76387 1-720) (enzyme)
stoichiometry N [1]: 8

Wzc^K540M3YE (K540M, Y718E, Y717E and Y715E) from E. coli serotype K30 (from UniProt P76387 1-720) (enzyme)
stoichiometry N [2]: 8

Wzc^K540M3YE_N711Y (K540M, Y718E, Y717E, Y715E and N711Y) from E. coli serotype K30 (from UniProt P76387 1-720) (enzyme)
stoichiometry N [3]: 8

— publication PMC11986026
